Biological target: TRAF6 dm (amino acids 1-274) fused to the GAL4 DNA binding domain (pGBT9-TRAF6 dm) (yeast; human) (UniProt P04386)
Assay: cell-based or functional assay

For “recombinant TRAF6-inhibiting protein fused with the transcription activation domain of GAL4 (full length cDNA in pGAD424, expressed in yeast Y190) (from UniProt Q8TD23 1-568)”, the β-galactosidase activity titer (liquid β-galactosidase assay, yeast two-hybrid) was 21 unit.

Reference: US20040109854A1
